Assay results taken from patent US20060246067A1.

Each substance was assayed against T cell Receptor (TcR) on human peripheral blood T lymphocytes (assay: cell-based or functional assay).
With SMEZ-2 D42C the P50% (human PBL proliferation, 3H thymidine incorporation) was 10 ng/mL and the Reduction (fold, against SMEZ-2 wild type) was 10000 fold. SMEZ-2 W75L was tested, and the P50% (human PBL proliferation, 3H thymidine incorporation) was > 10 ng/mL and the Reduction (fold, against SMEZ-2 wild type) was > 100000 fold. In the case of SMEZ-2 W75L.D42C.K182Q (M1), the P50% (human PBL proliferation, 3H thymidine incorporation) is reported as > 10 ng/mL and the Reduction (fold, against SMEZ-2 wild type) is reported as > 100000 fold. SMEZ-2 W75L.D42C.K182Q.Y18A. (M2) was tested, and the P50% (human PBL proliferation, 3H thymidine incorporation) was > 10 ng/mL and the Reduction (fold, against SMEZ-2 wild type) was > 100000 fold. With SMEZ-2 Y18A the P50% (human PBL proliferation, 3H thymidine incorporation) was > 10 ng/mL and the Reduction (fold, against SMEZ-2 wild type) was > 100000 fold.
